# Experimental data from patent US20170283834A1, “Processes for Producing A Fermentation Product Using A Fermenting Organism” (Novozymes A/S, priority 2014, published 2017).
# Assay: Penicillium oxalicum glucoamylase: heat stability
# Type: biochemical
# Conditions: for Relative activity (%): Heat stability
# Procedure: Substrate: 1% soluble starch (Sigma S-9765) in deionized water
# Reaction buffer: 0.1 M Acetate buffer at pH 5.3 Glucose concentration determination kit: Wako glucose assay kit (LabAssay glucose, WAKO, Cat#298-65701).
# 20 microL soluble starch and 50 microL acetate buffer at pH 5.3 were mixed. 30 microL enzyme solution (50 micro g enzyme protein/ml) was added to a final volume of 100 microL followed by incubation at 37° C. for 15 min.
# The glucose concentration was determined by Wako kits.
# To assess the heat stability of the Penicillium oxalicum glucoamylase the Reaction condition assay was modifed in that the enzyme solution and acetate buffer was preincubated for 15 min at 20, 30, 40, 50, 60, 70, 75, 80, 85, 90 and 95° C. Following the incubation 20 microL of starch was added to the solution and the assay was performed as described above.
molecule,measurement,setting,value
"Penicillium oxalicum glucoamylase: wild type Penicillium oxalicum glucoamylase disclosed in SEQ ID NO: 9 (protein, listed as Penicillium oxalicum) MRLTLLSGVAGVLCAGQLTAARPDPKGGNLTPFIHKEGERSLQGILDNLGGRGKKTPGTAAGLFIASPNTENPNYYYTWTRDSALTAKCLIDLFEDSRAKFPIDRKYLETGIRDYVSSQAILQSVSNPSGTLKDGSGLGEPKFEIDLNPFSGAWGRPQRDGPALRATAMITYANYLISHGQKSDVSQVMWPIIANDLAYVGQYWNNTGFDLWEEVDGSSFFTIAVQHRALVEGSQLAKKLGKSCDACDSQPPQILCFLQSFWNGKYITSNINTQASRSGIDLDSVLGSIHTFDPEAACDDATFQPCSARALANHKVYVDSFRSIYKINAGLAEGSAANVGRYPEDVYQGGNPWYLATLGASELLYDALYQWDRLGKLEVSETSLSFFKDFDATVKIGSYSRNSKTYKKLTQSIKSYADGFIQLVQQYTPSNGSLAEQYDRNTAAPLSANDLTWSFASFLTATQRRDAVVPPSWGAKSANKVPTTCSASPVVGTYKAPTATFSSKTKCVPAKDIVPITFYLIENTYYGENVFMSGNITALGNWDAKKGFPLTANLYTQDQNLWFASVEFIPAGTPFEYKYYKVEPNGDITWEKGPNRVFVAPTGCPVQPHSNDVWQF",Relative activity (%),preincubated 15 min at 20° C.,91.0%
same,Relative activity (%),preincubated 15 min at 30° C.,92.9%
same,Relative activity (%),preincubated 15 min at 40° C.,88.1%
same,Relative activity (%),preincubated 15 min at 50° C.,100.0%
same,Relative activity (%),preincubated 15 min at 60° C.,96.9%
same,Relative activity (%),preincubated 15 min at 70° C.,86.0%
same,Relative activity (%),preincubated 15 min at 80° C.,34.8%
same,Relative activity (%),preincubated 15 min at 85° C.,36.0%
same,Relative activity (%),preincubated 15 min at 90° C.,34.2%
same,Relative activity (%),preincubated 15 min at 95° C.,34.8%
same,activity maintained after preincubation,"up to 70° C., preincubation for 15 min",more than 80%
